Biological target: T1, CSC (Vps26/Vps29-GFP/Vps35) (Saccharomyces cerevisiae, UniProt P40335)
T1 chain 1: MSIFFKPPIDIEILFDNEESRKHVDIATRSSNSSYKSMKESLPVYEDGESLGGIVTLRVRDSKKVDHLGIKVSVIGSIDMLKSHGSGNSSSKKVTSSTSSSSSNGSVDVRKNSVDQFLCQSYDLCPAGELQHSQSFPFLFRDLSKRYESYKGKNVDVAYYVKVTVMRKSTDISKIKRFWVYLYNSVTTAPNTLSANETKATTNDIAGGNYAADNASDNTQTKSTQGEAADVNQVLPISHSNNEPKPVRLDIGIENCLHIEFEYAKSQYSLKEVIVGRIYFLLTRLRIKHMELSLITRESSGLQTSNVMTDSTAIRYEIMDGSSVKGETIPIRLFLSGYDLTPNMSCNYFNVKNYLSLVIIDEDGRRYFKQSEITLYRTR
T1 chain 2: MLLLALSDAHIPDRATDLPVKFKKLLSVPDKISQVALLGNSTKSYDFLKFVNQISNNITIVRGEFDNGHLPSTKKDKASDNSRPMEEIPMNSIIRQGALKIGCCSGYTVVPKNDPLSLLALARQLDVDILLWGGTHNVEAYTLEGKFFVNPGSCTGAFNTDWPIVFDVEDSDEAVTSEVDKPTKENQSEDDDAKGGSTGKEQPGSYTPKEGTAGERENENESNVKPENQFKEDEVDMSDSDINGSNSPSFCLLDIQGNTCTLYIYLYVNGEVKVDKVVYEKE
T1 chain 3: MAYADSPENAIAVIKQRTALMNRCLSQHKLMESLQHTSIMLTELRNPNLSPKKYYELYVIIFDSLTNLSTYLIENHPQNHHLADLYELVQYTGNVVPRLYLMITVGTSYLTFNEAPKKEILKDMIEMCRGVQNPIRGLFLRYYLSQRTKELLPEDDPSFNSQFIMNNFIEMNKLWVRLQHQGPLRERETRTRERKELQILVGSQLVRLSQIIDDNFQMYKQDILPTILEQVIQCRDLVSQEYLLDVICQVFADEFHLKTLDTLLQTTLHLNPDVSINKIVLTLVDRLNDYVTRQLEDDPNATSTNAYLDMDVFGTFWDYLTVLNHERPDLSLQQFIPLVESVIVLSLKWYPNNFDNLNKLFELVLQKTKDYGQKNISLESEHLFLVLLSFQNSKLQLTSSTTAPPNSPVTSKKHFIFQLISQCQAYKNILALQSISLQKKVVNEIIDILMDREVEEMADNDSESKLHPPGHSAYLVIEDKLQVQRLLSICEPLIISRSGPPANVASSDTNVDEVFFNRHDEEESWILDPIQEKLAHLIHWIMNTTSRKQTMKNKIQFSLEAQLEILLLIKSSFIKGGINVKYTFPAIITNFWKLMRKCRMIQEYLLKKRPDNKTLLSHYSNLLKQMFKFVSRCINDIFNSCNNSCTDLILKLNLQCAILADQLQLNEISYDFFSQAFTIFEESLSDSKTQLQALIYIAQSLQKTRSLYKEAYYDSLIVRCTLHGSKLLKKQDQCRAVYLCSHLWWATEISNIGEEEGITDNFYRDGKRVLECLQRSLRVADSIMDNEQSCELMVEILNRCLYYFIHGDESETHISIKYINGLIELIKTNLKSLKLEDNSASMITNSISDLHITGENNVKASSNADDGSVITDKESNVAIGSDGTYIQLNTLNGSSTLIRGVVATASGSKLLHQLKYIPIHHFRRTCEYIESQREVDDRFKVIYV
Assay: fluorescence titration (Vps29-GFP emission increase)

B1: Atg18 (protein)
chain: MSDSSPTINFINFNQTGTCISLGTSKGFKIFNCEPFGKFYSEDSGGYAIVEMLFSTSLLALVGIGDQPALSPRRLRIINTKKHSIICEVTFPTSILSVKMNKSRLVVLLQEQIYIYDINTMRLLHTIETNPNPRGLMAMSPSVANSYLVYPSPPKVINSEIKAHATTNNITLSVGGNTETSFKRDQQDAGHSDISDLDQYSSFTKRDDADPTSSNGGNSSIIKNGDVIVFNLETLQPTMVIEAHKGEIAAMAISFDGTLMATASDKGTIIRVFDIETGDKIYQFRRGTYATRIYSISFSEDSQYLAVTGSSKTVHIFKLGHSMSNNKLDSDDSNMEEAAADDSSLDTTSIDALSDEENPTRLAREPYVDASRKTMGRMIRYSSQKLSRRAARTLGQIFPIKVTSLLESSRHFASLKLPVETNSHVMTISSIGSPIDIDTSEYPELFETGNSASTESYHEPVMKMVPIRVVSSDGYLYNFVMDPERGGDCLILSQYSILMD
For B1, the Kd was ~50 nM.

— PMC9108610 (2022)
